± gives the uncertainty stated by the source.
Assay: amyloid nucleation score (Sup35N fusion, yeast selection) (log enrichment); library NNK3; higher = more nucleation; inactive = no reads after selection
In short: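 Random libraries were run with three technical output replicates. In each, psi-negative yeast expressing Sup35N fused to peptides of 20 random codons were induced 24 hours with 100 μM copper sulfate and grown 7 days at 30°C on medium lacking adenine and uracil, and input and output plasmid inserts were Illumina-sequenced. The nucleation score is the DiMSum log enrichment of output over input reads, centred on the mode score of non-aggregating sequences, and sequences under 100 input reads were excluded.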

Substance | amyloid nucleation score
DLMTMSYRLMIIFLVDTWPR | inactive
DLPSMSIVIVIQKLYARVNR | inactive
DLSTTLINPIEEQPYHFAVP | inactive
DLSVYYVLLFVCDGL | -1.35 ± 1.8
DLVEVIYSVTSYYPNYLRAK | inactive
DLVMDFQ | inactive
DLVPVIHGIYWAG | inactive
DLVTSTGYSGVNAVSDIEDF | inactive
DLVYHIEDMFGSMR | 0.547 ± 0.22
DMHGRSNNLW | inactive
DMINSGQISDHVLD | inactive
DMKNWPKDYQ | inactive
DMLFDQGLSCNGLI | inactive
DMVSRSSCSDL | inactive
DNSVALIDYSWAVTRI | inactive
DNWFN | inactive
DPFRLLGEY | inactive
DPYSDVQDKDTSDAGYASRV | inactive
DQRLFFGHGGFDAVSW | inactive
DRAGHGSV | inactive
DRDSALWIMTVWVRGSHYTR | inactive
DRELSFLPGYYLYARVRHKS | inactive
DRIVACKLKTGYTQGMVPLL | inactive

Substance | amyloid nucleation score
DRLALEFVYRR | 0.145 ± 0.44
DRNEVLDQNVVDSEISTVLP | inactive
DRPRQRTAFVYRQWLMYYQ | inactive
DRTMQVIIYARQRVPLKWVS | inactive
DRVFLQPTCYITAGYGFRVM | inactive
DRYCLWVRCLVDAFMRPVVG | inactive
DSDVWANAGHRLSLKMI | inactive
DSDYGNVVWRFYRSYGCTGL | inactive
DSGLCV | inactive
DSHGYIYLCVWVRTQNPWSV | inactive
DSIFSWSFRGFSCVN | inactive
DSKQNYLIRVDRLFMECGLK | inactive
DSLSFGVVIFLYFKPGEFLY | inactive
DSLSGYSVPYWSSFMNPWTN | 0.677 ± 0.24
DSLYWCSPFNGHCSDNNTQN | inactive
DSRMF | inactive
DSVFNL | inactive
DSVKSALRRGI | -0.166 ± 0.9
DTFMDSMLYTGLSIPCKVLL | -0.116 ± 1.4
DTLYGDYQGQRYSVALMKCV | inactive
DTPMESGTGATHLVRIVHSA | inactive
DTWMST | inactive
DVANKIVSKGRS | inactive

Substance | amyloid nucleation score
DVDVPT | inactive
DVFRRFAGRTLQLSPWDTTL | inactive
DVGLAVNTSHLWSYT | inactive
DVHWISGKSNYSDDNRCYST | inactive
DVLHLRCREVRRDVGYVTEF | inactive
DVSWRTPYTIKNYGSFFLIK | inactive
DVVGLVAGIVVKLILCSHYG | inactive
DVVLTNVFDCML | inactive
DVVSLGIMQKGSWSGCML | inactive
DWHAIFTMFECNMQRGKSAR | 0.113 ± 0.31
DWRMAYVSVC | inactive
DWSPLAGRRMTSAVDGVSMD | inactive
DWSWFK | inactive
DWSYEKWLACSGFYGRRRL | inactive
DYCGDCMILFCTLVGYDRCT | 2.06 ± 0.068
DYCLSLLWINMPHVGNIVNL | inactive
DYGATGHC | inactive
DYNDCIKISIFLLYSPLIWC | 1.79 ± 0.1
DYTRKVHTIEGSSYYWLNFS | 1.36 ± 0.078
DYVCYLILVLEASRRNCRSS | inactive
DYYLNLGGK | inactive
EAGSTLWCGWKRYASCGRAE | inactive
EAHGYVR | inactive

Substance | amyloid nucleation score
EAKLVGGFTDFRELITNCLV | 1.01 ± 0.17
EAPRFCSRAMDYVILQGWTL | inactive
ECELPNAPTCEICKIDSRLG | inactive
ECIGRKRELDLWSAARYAYS | inactive
ECLKPCSSNCTNRPTARPQC | inactive
ECTLGCTSDWGNLKARHGVR | inactive
ECVFIKFWVEGWKTLWSWSA | inactive
ECYFFHFTR | 1.34 ± 0.12
EDFNRILVRNVRS | inactive
EDIEMEMLLLGCNLEVLNAK | inactive
EDLVLRIDSTAACAELEKWL | inactive
EDPGLYFLRVS | inactive
EENTVSSTAIKNVVYSQFQV | inactive
EFMIIMYSHSLCVLQAVQLV | inactive
EFQGQTKSSWAYRLDKLCLP | inactive
EGEVCSVCY | inactive
EGHGGTRLSHRA | inactive
EGSIQMWTGTSLLDTRIWGG | inactive
EGVTII | inactive
EHLQRGSHLFSFSRSEI | inactive
EHVRVYFVLDYFDFCQAPAG | inactive
EICSSNKRQRLKRVMEVIFC | inactive
EIKYTDL | inactive

Substance | amyloid nucleation score
EIMYVLTIFSNVFVMFFS | -0.436 ± 0.44
EIQVV | inactive
ELALISHTLGSSATPNWFTV | inactive
ELGFFCSL | inactive
ELGIII | inactive
ELIMCCHEYSVLAMRLLA | inactive
ELRLHNFTFRLVASFWLLRV | inactive
EMCINSVMMDATMSKH | inactive
EMPLF | inactive
ENALARMLAEEI | inactive
EPRGCYRQMLHKLIMS | inactive
EQGSSLHRHNHFVTLMGCRG | inactive
ERRIDG | 1.23 ± 0.094
ERRNRMFSWCWCSSSLLDAE | -0.08 ± 1
ERSHVCCGNDRYTLLWRVYS | inactive
ERVLRVNHYWICSFPFNPGV | inactive
ESETWSTYSALQHGQVAIGC | inactive
ESLIGSQGQRSNYNIMGNGW | inactive
ESLNGLNRSHA | inactive
ESMISNGFWGLRARCSVINM | inactive
ESSHRTSIFRDWCNSLLI | inactive
ESSMFARDTLWMSFVRTMHS | inactive
ESTIEMIAL | 1.25 ± 0.11

Substance | amyloid nucleation score
ETECVFSDYHSKVNICGGSL | inactive
ETRFIYAFYFD | inactive
ETWLKTINRLGLNRSHLSIL | inactive
ETYHCIV | inactive
EVDFVALIPCSQTVLFTVEV | inactive
EVFARIVPRDMMLFLILIIP | inactive
EVFGVIDDNYFCR | inactive
EVFVLNYNWNVCHWLFVADV | 1.83 ± 0.083
EVIRCRSSEEIPGRTNSMWD | inactive
EVKGTCWVCVLVHVATSYVG | 0.65 ± 0.21
EVLSMYRCSNVFLWFTKFIA | inactive
EVSWVSRNVWFNRTCFCVQV | 0.042 ± 0.64
EVVVELIMLS | inactive
EYYRWFYN | inactive
FACAFKSSCLNHLCSAVW | 0.757 ± 0.17
FAICMFRGYLLYFLGLEDEA | inactive
FALLMCDSHRSCNNVNNFVH | inactive
FANKTRYSPWSCNPVFWYDR | inactive
FAQLISYHSMLTCCKMTM | 1.54 ± 0.096
FAQYYDSVPIDEDTIQIVHI | inactive
FATFYVQQGFGNFAPKAYS | inactive
FCENRFTSFLKNVIIW | 0.398 ± 0.18
FCMRMDRLQLRIADSLLRFF | inactive

Substance | amyloid nucleation score
FCPTVCQFMVPPPHPSKKLY | inactive
FCTFSLRHYVTKNGPVCPTK | inactive
FCYLPRALCEVLNRCLLNSL | inactive
FDFARWKDMKRESFLFLDVR | inactive
FDFRFYQVVVGGCRIETVIV | inactive
FDGTGRLRF | -0.629 ± 1.2
FDIYLCDMYSLIFVCTGRLP | -0.544 ± 0.66
FDKGFLMTLNTLAVLSNQE | inactive
FDLSLDSMKFEAFYFVVRLV | inactive
FDRLNRDDVIFPSRDFNVSS | inactive
FDVDGLILFICWCMQRAHM | inactive
FECYRSSLGQWVMLDVSIHW | -0.534 ± 0.87
FEEYAIYPVAKGSVKMDAAL | inactive
FFCMWDRMIALWSHFCNLDG | inactive
FFFRYILKGMPVLFAVCRHC | inactive
FFGPLPRTAIYQHILCTRNG | 0.665 ± 0.14
FFHFSNVCTWVPDYSETSPS | inactive
FFHSIPKFFRAQKMCTYVPP | inactive
FFIFRDVSTVDSLGPLYRLM | 1.14 ± 0.2
FFIYVQTGPS | -0.922 ± 1.5
FFKDSIVLGVSLRYQFSYLT | inactive
